Here are results for seven molecules from patent publication US7728193B2, “Phytochrome-interacting protein and a use thereof” (Genomine Inc., priority 2004, dated 2010).

One data set concerns the target T1, GST-PAPP5 (Arabidopsis thaliana, UniProt Q84XU2).
T1 sequence (Q84XU2 1-484 isoform Q84XU2-2): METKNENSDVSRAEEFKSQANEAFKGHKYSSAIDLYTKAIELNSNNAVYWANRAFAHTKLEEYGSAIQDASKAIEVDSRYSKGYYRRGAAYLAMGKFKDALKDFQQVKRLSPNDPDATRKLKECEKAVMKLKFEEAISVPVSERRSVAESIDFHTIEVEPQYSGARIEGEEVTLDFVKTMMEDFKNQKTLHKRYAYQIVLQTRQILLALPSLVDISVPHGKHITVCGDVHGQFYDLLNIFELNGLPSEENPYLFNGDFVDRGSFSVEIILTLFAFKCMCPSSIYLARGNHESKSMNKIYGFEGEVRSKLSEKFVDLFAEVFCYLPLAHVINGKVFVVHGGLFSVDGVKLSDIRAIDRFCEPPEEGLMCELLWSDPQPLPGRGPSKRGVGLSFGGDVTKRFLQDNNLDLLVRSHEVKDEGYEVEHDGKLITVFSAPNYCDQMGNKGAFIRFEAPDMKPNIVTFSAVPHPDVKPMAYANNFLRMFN
The experiment in a line: In vitro phosphatase assay of GST-PAPP5 with ρNPP as substrate: effect of arachidonic acid and okadaic acid. It counts as biochemical. The protocol:
In order to examine whether the inventive PAPP5 protein has enzymatic activity, an enzymatic assay was performed using […] ρ-nitrophenyl phosphate (ρNPP) as a substrate. First, the GST-PAPP5 fusion protein purified in Example <4-1> was prewarmed at 30° C. for 1 minute. The prewarmed enzyme solution was added to 100 μl of kinase/phosphatase (KP) buffer (20 mM Tris-HCl pH 7.5, 30 mM MgCl2, 1 mM EDTA, 1 mM EGTA, 0.1% β-mercaptoethanol, 0.1% ethanol) containing O-400 mM ρNPP to initiate a reaction. […] . After reaction at 30° C. for 15 minutes, 900 μl of 0.25N NaOH was added to terminate the reaction. The absorbance at 410 nm was measured. After subtracting the absorbance value of the control reaction solution containing all the components except for the enzyme from that of the reaction solution containing the enzyme, the rate was calculated using a millimolar extinction coefficient (17.8) of ρ-nitrophenolate ions.
In order to confirm if the phosphatase activity of the inventive PAPP5 protein is activated by arachidonic acid, 0-300 μM arachidonic acid was added to a reaction mixture in the presence of 100 mM ρNPP, and the enzymatic activity was measured according to the same method as Example <6-1>.
Thus, the inhibitory effect of okadaic acid on the phosphatase activity of GST-PAPP5 was examined. As a result, the IC50 of okadaic acid, at which the enzyme activity is inhibited by 50%, was 5 nM (data not shown).
(§1) Thus, in order to confirm if PAPP5 also have this property, the present inventors examined the phosphatase activities of GST-PAPP5, GST-TPR and GST-PP2Ac in the same manner as in Example <6-1>. At this time, the concentration of ρNPP was 100 mM.

The target of data set [1] is autophosphorylated oat Pfr phytochrome A (oat).
The test system of data set [2] is autophosphorylated oat phytochrome A. The experiment in a line: Dephosphorylation of autophosphorylated phytochrome by PAPP5 in vitro. The format is biochemical. The settings on record: 1 μg fusion protein, 30 minutes. The protocol: First, KP buffer (20 mM Tris-HCl pH7.5, 30 mM MgCl2, 1 mM EDTA, 1 mM EGTA, 0.1% β-mercaptoethanol, 0.1% ethanol) containing 1 μg of purified oat phytochrome A (provided from Kumho Life and Environmental Science Laboratory, Korea) was set on ice and irradiated with Rc light output of 50 μmolS^−1m^−2 at 664 nm for 5 minutes. Then, the reaction solution was allowed to react with [γ-^32P]ATP in dark conditions for 30 minutes (autophosphorylation of phytochrome A). Following addition of 1 μg of each of the fusion proteins GST-PAPP5, GST-TPR and GST-PP2Ac prepared in Examples <4-1> and <5-1>, the reaction continued for more 30 minutes, and then stopped by adding 12 μl of 5× Tris-glycine SDS sample buffer under dim green safe light.
Next, the present inventors investigated whether the phosphatase activity of PAPP5 depends on a change in the spectroscopic structure (photoconversion) of phytochrome molecules (Pr⇄Pfr). KP buffer solution containing phytochrome was set on ice and irradiated with a Rc light output of 50 μmolS^−1m^−2 at 664 nm (conversion of phytochrome into Pfr form) or a FRc light output of 50 μmolS^−1m^−2 at 748 nm (conversion of phytochrome into […]) for 5 minutes. Then, the autophosphylation/dephosphorylation test of phytochrome was performed in the same manner as described above.

Another data set concerns phytochromes. The experiment in a line: Quantitative yeast two-hybrid assay (β-galactosidase activity). It counts as cell-based, Arabidopsis thaliana. The following applies: PHYA or PHYB bait, EGY48 yeast. The protocol:
In order to quantitatively assay the interaction between the TPR domain of PAPP5 and phytochromes, each of recombinant vectors (preys) for the TPR domain of PAPP5 and for the PP2A catalytic domain of PAPP5 were prepared, respectively.
A PHYA gene or a PHYB gene was prepared by performing PCR according to the same method as in Example <4-2>, and inserted into a pGilda vector. The recombinant vector was used as a bait. The prepared bait or prey was co-introduced into an EGY48 yeast strain together with a pSH18-34 reporter plasmid. The transformed strain was cultured until the OD600 value reached about 0.7. The cultured cells were washed one time with Z-buffer solution (60 mM Na2HPO4, 40 mM NaH2PO4, 10 mM KCl, 1 mM MgSO4, pH 7.0), and then re-suspended in the solution. Thereafter, the solution was frozen with liquid N2. The frozen solution was dissolved, to which β-mercaptoethanol and ONPG (o-nitrophenyl-β-D-galactopyranoside) were then added at final concentrations of 0.2% and 0.67 mg/ml, respectively. The dissolved solution was allowed to react for 30 minutes at 37° C. Next, Na2CO3 was added to the solution at a final concentration of 0.3 M to terminate the reaction. The absorbance at […] was measured, and the β-galactosidase activity was determined in Miller units (Miller, J. H. Experiments in Molecular Genetics (Cold Spring Harbor Laboratory, Cold Spring harbor, N.Y., 1972)).

Data set [3] in a line: In vitro phosphatase assay: enzymatic activity of PAPP5 and its domain fragments on ρNPP. It counts as biochemical. The following applies: 100 mM ρNPP; regardless of the addition of arachidonic acid. The procedure:
In order to examine whether the inventive PAPP5 protein has enzymatic activity, an enzymatic assay was performed using […] ρ-nitrophenyl phosphate (ρNPP) as a substrate. First, the GST-PAPP5 fusion protein purified in Example <4-1> was prewarmed at 30° C. for 1 minute. The prewarmed enzyme solution was added to 100 μl of kinase/phosphatase (KP) buffer (20 mM Tris-HCl pH 7.5, 30 mM MgCl2, 1 mM EDTA, 1 mM EGTA, 0.1% β-mercaptoethanol, 0.1% ethanol) containing O-400 mM ρNPP to initiate a reaction. To examine the autohydrolysis of ρNPP at each substrate concentration, the GST-PAPP5 enzyme solution was not added to a control group. After reaction at 30° C. for 15 minutes, 900 μl of 0.25N NaOH was added to terminate the reaction. The absorbance at 410 nm was measured. After subtracting the absorbance value of the control reaction solution containing all the components except for the enzyme from that of the reaction solution containing the enzyme, the rate was calculated using a millimolar extinction coefficient (17.8) of ρ-nitrophenolate ions.
as §1

Another data set relates to phytochrome molecules. Kind of data set: Pull-down assay with PAPP5 domain fragments. The format is binding, Arabidopsis thaliana. The procedure: Thereafter, according to the same method as in Example <4-1>, an in vitro assay was performed on each of the proteins which have been expressed and purified in E. coli.

With `CCCCC/C=C\C/C=C\C/C=C\C/C=C\CCCC(=O)O` [arachidonic acid], the “arachidonic acid concentration at which activity of GST-PAPP5 reached the stationary phase” value on GST-PAPP5 (0-300 μM arachidonic acid, 100 mM ρNPP) is listed as “above 100 μM”. The “increase of phosphatase activity of GST-PAPP5 by arachidonic acid” value at GST-PAPP5 (100 mM ρNPP) is given as “about five times increased”.

The IC50 is the concentration that gives 50% inhibition. For `C=C1[C@@H](O)[C@@H]2O[C@]3(CC[C@H](/C=C/[C@@H](C)[C@@H]4CC(C)=C[C@@]5(O[C@H](C[C@@](C)(O)C(=O)O)CC[C@H]5O)O4)O3)CC[C@H]2O[C@@H]1[C@@H](O)C[C@H](C)[C@H]1O[C@@]2(CCCCO2)CC[C@H]1C` [okadaic acid], the IC50 on GST-PAPP5 (phosphatase activity of GST-PAPP5, data not shown, read-out: IC50 of okadaic acid, at which the enzyme activity is inhibited by 50%) amounted to 5 nM. The molecule GST-PAPP5 fusion protein (enzyme) returned a dephosphorylation of autophosphorylated phytochrome A (autoradiography after SDS-PAGE) in data set [1] of 80%. On to “GST-PAPP5: a fusion protein of GST and full-length PAPP5”, for which, in data set [2], the “dephosphorylation of autophosphorylated oat Pfr phytochrome A” value is reported as “about 80%”.

B1: B42-PP2Ac: TPR domain-deleted PP2A catalytic domain of PAPP5 as yeast two-hybrid prey (protein)
chain: SVPVSERRSVAESIDFHTIEVEPQYSGARIEGEEVTLDFVKTMMEDFKNQKTLHKRYAYQIVLQTRQILLALPSLVDISVPHGKHITVCGDVHGQFYDLLNIFELNGLPSEENPYLFNGDFVDRGSFSVEIILTLFAFKCMCPSSIYLARGNHESKSMNKIYGFEGEVRSKLSEKFVDLFAEVFCYLPLAHVINGKVFVVHGGLFSVDGVKLSDIRAIDRFCEPPEEGLMCELLWSDPQPLPGRGPSKRGVGLSFGGDVTKRFLQDNNLDLLVRSHEVKDEGYEVEHDGKLITVFSAPNYCDQMGNKGAFIRFEAPDMKPNIVTFSAVPHPDVKPMAYANNFLRMFN
With B1, in the data set with phytochromes, the “activity of interaction with phytochromes (β-galactosidase activity)” value is recorded as “remarkable reduction”.

B2: GST-PP2Ac: fusion of GST and PP2A catalytic domain of PAPP5 with a deletion of amino acids 1-138 in SEQ ID NO: 4 (protein)
chain: SVPVSERRSVAESIDFHTIEVEPQYSGARIEGEEVTLDFVKTMMEDFKNQKTLHKRYAYQIVLQTRQILLALPSLVDISVPHGKHITVCGDVHGQFYDLLNIFELNGLPSEENPYLFNGDFVDRGSFSVEIILTLFAFKCMCPSSIYLARGNHESKSMNKIYGFEGEVRSKLSEKFVDLFAEVFCYLPLAHVINGKVFVVHGGLFSVDGVKLSDIRAIDRFCEPPEEGLMCELLWSDPQPLPGRGPSKRGVGLSFGGDVTKRFLQDNNLDLLVRSHEVKDEGYEVEHDGKLITVFSAPNYCDQMGNKGAFIRFEAPDMKPNIVTFSAVPHPDVKPMAYANNFLRMFN
As to B2, the “phosphatase activity relative to GST-PAPP5 with no arachidonic acid” value in data set [3] is “five times higher activity”. Further, in data set [2], the “level of dephosphorylation of autophosphorylated oat Pfr phytochrome A (in words)” value is recorded as “very low”.

B3: GST-TPR: fusion protein of GST and TPR domain of PAPP5, amino acids 1-138 of SEQ ID NO: 4 (protein)
chain: METKNENSDVSRAEEFKSQANEAFKGHKYSSAIDLYTKAIELNSNNAVYWANRAFAHTKLEEYGSAIQDASKAIEVDSRYSKGYYRRGAAYLAMGKFKDALKDFQQVKRLSPNDPDATRKLKECEKAVMKLKFEEAIS
For B3, the “level of dephosphorylation of autophosphorylated oat Pfr phytochrome A (in words)” value in data set [2] is reported as “do not affect the phosphorylation status”. Besides, the “ability to interact with phytochrome molecules (pull-down)” value with phytochrome molecules was “has the ability to interact”.
